From paper PMC9605875 (Cell Host & Microbe, 2022)

B1: 1112-1 IgG (antibody, V domains shown)
VH: QVQLQQPGAELLKPGTSMKLSCKASGYTFSNYWMHWVKLRPGQGFEWIGEINPFNGGTNFNEKFKSKATLTVDRSSSTAYMQLSSVTSEDSAVYYCTIPLSDYGDWFFAVWGAGTTVTVSS
VL: DIVMTQSHKFMSTSIGDRVSITCKASQDVSTAVAWYRQKPGQSPKLLIYSASYRSTGVPDRFTGSGSGTDFTFTISSVQAEDLAVFYCQQHYSAPLTFGAGTKLELK
notes: copies: 2 + 2
B2: 17C7 IgG (antibody, V domains shown)
VH: EVQLVESGGGVVQPGRSLRLSCAASGFTFSTYAMHWVRQAPGKGLEWVAVVSYDGRTKDYADSVKGRFTISRDNSKNTLYLQMNSLRTEDTAVYFCARERFSGAYFDYWGQGTLVTVSS
VL: EIVLTQSPATLSLSPGERATLSCRASQSVSSYLAWYQQKPGQAPRLLIYDASNRATGIPARFSGSGSGTDFTLTISSLEPEDFAVYSCQQRNNWPPTFGGGTKVEIK
notes: IgG1; copies: 2 + 2

Target: Wild-type RABV-G, untagged, full length, on transfected Expi293 cells (Rabies virus, Pasteur (PV) ectodomain; …, UniProt P08667, strain)
Experiment: flow cytometry on cells
Conditions: one partner purified

Row | Binder | binding result
1 | B1 | binds
2 | B2 | binds
